Results from patent US20260151494A1 (ARO BIOTHERAPEUTICS, published 2026).
Positions count from the first letter of the chain named.

B1: CD71-binding FN3 domain SEQ ID NO 419 (designed binder)
chain: MLPAPKNLVVSRVTEDSARLSWTAPDAAFDSFFIGYLEPQPPGEAIALLVPGSERSYDLTGLKPGTEYNVTIQGVKGGFPSSPLNAYFTT
B2: CD71-binding FN3 domain SEQ ID NO 432 (designed binder)
chain: B1 chain with L49Y, S82G, N85E
B3: CD71-binding FN3 domain SEQ ID NO 424 (designed binder)
chain: B1 chain with A47H, L49I, S82D, N85D, Y87S
B4: CD71-binding FN3 domain SEQ ID NO 423 (designed binder)
chain: B1 chain with L49Y, S82E, N85V, Y87T
B5: CD71-binding FN3 domain SEQ ID NO 433 (designed binder)
chain: B1 chain with L49Y, S82L, N85E, Y87N
B6: CD71-binding FN3 domain SEQ ID NO 434 (designed binder)
chain: B1 chain with A47G, L49Q, S82D, N85Q, Y87I
B7: CD71-binding FN3 domain SEQ ID NO 428 (designed binder)
chain: B1 chain with A47S, L49Y, S82N, N85I, Y87Q
B8: CD71-binding FN3 domain SEQ ID NO 438 (designed binder)
chain: B1 chain with A47D, L49W, S82Y, N85L, Y87I
B9: CD71-binding FN3 domain SEQ ID NO 445 (designed binder)
chain: B1 chain with A47H, L49F, S82D, N85V, Y87S
B10: CD71-binding FN3 domain SEQ ID NO 425 (designed binder)
chain: B1 chain with A47G, S82N, N85S, Y87I
B11: CD71-binding FN3 domain SEQ ID NO 430 (designed binder)
chain: B1 chain with A47D, L49W, S82Y, N85S, Y87S
B12: CD71-binding FN3 domain SEQ ID NO 436 (designed binder)
chain: B1 chain with A47H, S82E, N85W, Y87K
B13: CD71-binding FN3 domain SEQ ID NO 422 (designed binder)
chain: B1 chain with A47S, S82H, N85D, Y87S
B14: CD71-binding FN3 domain SEQ ID NO 439 (designed binder)
chain: B1 chain with A47H, L49F, S82V
B15: CD71-binding FN3 domain SEQ ID NO 431 (designed binder)
chain: B1 chain with A47V, L49F, S82N, N85S, Y87I, F88S
B16: CD71-binding FN3 domain SEQ ID NO 420 (designed binder)
chain: B1 chain with A47H, L49Q, Q73H, F79I, S82M, N85S, Y87K
B17: CD71-binding FN3 domain SEQ ID NO 437 (designed binder)
chain: B1 chain with A47S, L49W, S82T, N85S, Y87K
B18: CD71-binding FN3 domain SEQ ID NO 443 (designed binder)
chain: B1 chain with A47E, L49Y, S82D, N85H, Y87A
B19: CD71-binding FN3 domain SEQ ID NO 435 (designed binder)
chain: B1 chain with L49W, S82H, N85A, Y87V
B20: CD71-binding FN3 domain SEQ ID NO 421 (designed binder)
chain: B1 chain with A47D, L49W, S82M, N85E, Y87V
notes: The cell prints '42'
B21: CD71-binding FN3 domain SEQ ID NO 441 (designed binder)
chain: B1 chain with A47L, L49W, S82D, N85I, Y87N
B22: CD71-binding FN3 domain SEQ ID NO 426 (designed binder)
chain: B1 chain with A47F, S82M, N85S, Y87I
B23: CD71-binding FN3 domain SEQ ID NO 427 (designed binder)
chain: B1 chain with A47H, L49R, S82D, N85I, Y87V
B24: CD71-binding FN3 domain SEQ ID NO 381 (designed binder)
chain: MLPAPKNLVVSRVTEDSARLSWTAPDAAFDSFEIAYQELSLWGEAIVLTVPGSERSYDLTGLKPGTEYYVHIGGVKGGIWSRPLSAIFTT
B25: CD71-binding FN3 domain SEQ ID NO 388 (designed binder)
chain: B24 chain with Q37F, L39Y, S40C, W42N, Y69W, H71Q, I79T, R82W
B26: CD71-binding FN3 domain SEQ ID NO 390 (designed binder)
chain: MLPAPKNLVVSRVTEDSARLSWTAPDAAFDSFEIGYFERAWFGEAIVLTVPGSERSYDLTGLKPGTEYAVFIGGVKGGSYSYPLSAIFTT
B27: CD71-binding FN3 domain SEQ ID NO 352 (designed binder)
chain: B24 chain with R82S
B28: CD71-binding FN3 domain SEQ ID NO 407 (designed binder)
chain: B24 chain with Q37F, L39T, S40C, L41R, W42T, Y69R, H71W, I79V
B29: CD71-binding FN3 domain SEQ ID NO 358 (designed binder)
chain: B26 chain with F37W, R39N, W41Y, F42K, A69V, S79V, Y80W, Y82V
B30: CD71-binding FN3 domain SEQ ID NO 429 (designed binder)
chain: B26 chain with A40S, W41F, F42Y, V47I, T49F, F71W, S79V, Y80W, Y82R
B31: CD71-binding FN3 domain SEQ ID NO 348 (designed binder)
chain: B26 chain with G35S, R39N, A40T, F42Y, A69V, F71W, S79L, Y80W, Y82K
B32: CD71-binding FN3 domain SEQ ID NO 418 (designed binder)
chain: B24 chain with Q37F, L39N, L41Y, W42Y, Y69A, H71Y, I79S, R82N, F88S

Key:
[1] = biological target: T1, human apical domain of CD71 (human, UniProt P02786 189-383, limits assumed); assay: primary ELISA; signal over HSA control; for RLU: test concentration or dose not given here
T1 construct: domain: apical domain
T1 sequence (P02786 189-383 limits assumed): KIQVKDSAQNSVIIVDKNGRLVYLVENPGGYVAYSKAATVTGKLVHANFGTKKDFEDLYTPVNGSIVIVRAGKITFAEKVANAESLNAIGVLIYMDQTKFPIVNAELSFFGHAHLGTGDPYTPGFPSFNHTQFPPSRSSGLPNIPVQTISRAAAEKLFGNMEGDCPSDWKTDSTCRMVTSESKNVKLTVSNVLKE

[2] = biological target: T2, human CD71 extracellular domain (human, UniProt P02786 89-760); assay: primary ELISA; signal over HSA control; for RLU: test concentration or dose not given here
T2 construct: also called hCD71; CD71-ECD
T2 sequence (P02786 89-760): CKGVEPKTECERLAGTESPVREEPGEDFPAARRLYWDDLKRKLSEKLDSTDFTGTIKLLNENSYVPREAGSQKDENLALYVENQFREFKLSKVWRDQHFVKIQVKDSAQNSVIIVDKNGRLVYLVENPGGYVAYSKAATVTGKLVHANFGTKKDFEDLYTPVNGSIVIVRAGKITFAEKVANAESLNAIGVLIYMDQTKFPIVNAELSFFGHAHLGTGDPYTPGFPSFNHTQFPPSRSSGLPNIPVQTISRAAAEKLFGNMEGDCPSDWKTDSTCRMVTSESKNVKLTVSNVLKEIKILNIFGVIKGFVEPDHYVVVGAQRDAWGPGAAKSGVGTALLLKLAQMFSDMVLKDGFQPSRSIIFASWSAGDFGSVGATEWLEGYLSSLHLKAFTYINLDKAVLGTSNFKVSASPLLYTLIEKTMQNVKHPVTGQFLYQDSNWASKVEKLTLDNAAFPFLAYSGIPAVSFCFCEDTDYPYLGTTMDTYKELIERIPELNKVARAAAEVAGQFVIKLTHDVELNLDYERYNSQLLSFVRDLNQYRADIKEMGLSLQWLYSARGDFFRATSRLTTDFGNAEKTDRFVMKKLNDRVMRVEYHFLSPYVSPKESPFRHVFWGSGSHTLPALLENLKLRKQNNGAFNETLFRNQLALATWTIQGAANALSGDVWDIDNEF

[3] = biological target: T1, human apical domain of CD71; assay: primary ELISA; note: test concentration or dose not given here
[4] = biological target: T2, human CD71 extracellular domain; assay: primary ELISA; note: test concentration or dose not given here

| Apical domain:HSA [1] | hCD71:HSA [2] | RLU [3] | RLU [4] | Binder |
| --- | --- | --- | --- | --- |
| 269 ratio | 211 ratio | 4.59e+06 RLU | 3.6e+06 RLU | B1 |
| 79 ratio | 94 ratio | 3.11e+06 RLU | 3.73e+06 RLU | B2 |
| 155 ratio | 117 ratio | 5.16e+06 RLU | 3.9e+06 RLU | B3 |
| 57 ratio | 58 ratio | 6.56e+06 RLU | 6.63e+06 RLU | B4 |
| 184 ratio | 169 ratio | 3.57e+06 RLU | 3.26e+06 RLU | B5 |
| 403 ratio | 313 ratio | 4.03e+06 RLU | 3.13e+06 RLU | B6 |
| 186 ratio | 195 ratio | 5.9e+06 RLU | 6.19e+06 RLU | B7 |
| 161 ratio | 143 ratio | 5.59e+06 RLU | 4.96e+06 RLU | B8 |
| 77 ratio | 76 ratio | 6.73e+06 RLU | 6.65e+06 RLU | B9 |
| 347 ratio | 247 ratio | 6.23e+06 RLU | 4.44e+06 RLU | B10 |
| 124 ratio | 126 ratio | 3.58e+06 RLU | 3.64e+06 RLU | B11 |
| 288 ratio | 227 ratio | 5.66e+06 RLU | 4.46e+06 RLU | B12 |
| 340 ratio | 171 ratio | 5.88e+06 RLU | 2.97e+06 RLU | B13 |
| 258 ratio | 215 ratio | 6.56e+06 RLU | 5.47e+06 RLU | B14 |
| 88 ratio | 89 ratio | 4.35e+06 RLU | 4.4e+06 RLU | B15 |
| 495 ratio | 402 ratio | 3.93e+06 RLU | 3.2e+06 RLU | B16 |

| Apical domain:HSA [1] | hCD71:HSA [2] | RLU [3] | RLU [4] | Binder |
| --- | --- | --- | --- | --- |
| 147 ratio | 168 ratio | 2.82e+06 RLU | 3.22e+06 RLU | B17 |
| 116 ratio | 142 ratio | 4.4e+06 RLU | 5.38e+06 RLU | B18 |
| 319 ratio | 210 ratio | 5.5e+06 RLU | 3.62e+06 RLU | B19 |
| 398 ratio | 167 ratio | 4.2e+06 RLU | 1.76e+06 RLU | B20 |
| 31 ratio | 32 ratio | 5.74e+06 RLU | 5.92e+06 RLU | B21 |
| 176 ratio | 13 ratio | 5.95e+06 RLU | 4.43e+06 RLU | B22 |
| 612 ratio | 392 ratio | 3.52e+06 RLU | 2.25e+06 RLU | B23 |
| 227 ratio | 110 ratio | 5.14e+06 RLU | 2.48e+06 RLU | B24 |
| 135 ratio | 34 ratio | 4.29e+06 RLU | 1.09e+06 RLU | B25 |
| 131 ratio | 53 ratio | 4.78e+06 RLU | 1.93e+06 RLU | B26 |
| 144 ratio | 63 ratio | 5.42e+06 RLU | 2.38e+06 RLU | B27 |
| 61 ratio | 23 ratio | 4.64e+06 RLU | 1.73e+06 RLU | B28 |
| 83 ratio | 39 ratio | 5.02e+06 RLU | 2.34e+06 RLU | B29 |
| 280 ratio | 124 ratio | 4.39e+06 RLU | 1.95e+06 RLU | B30 |
| 302 ratio | 115 ratio | 4.8e+06 RLU | 1.83e+06 RLU | B31 |
| 77 ratio | 30 ratio | 5.05e+06 RLU | 1.95e+06 RLU | B32 |
